Data from patent US6428997B1, “Aminopeptidase derived from Bacillus licheniformis and process for preparation of natural type proteins” (LG Chemical Ltd., priority 1997, dated 2002).

Columns and labels:
[1] = tested on: methionyl oligopeptide of SEQ. ID. NO: 1; test: Kinetic parameters of aminopeptidase, methionyl oligopeptide substrate; format: biochemical; conditions: 37° C.
Excerpt: (§1) In order to compare substrate specificity of aminopeptidase of this invention, 2 kinds of substrate were used. In detail, one was synthetic substrates of p-nitroanilide derivative and purchased from Sigma, USA and the other was oligopeptide such as methionyl oligopeptide of SEQ. ID. NO: 1 which have amino acid sequence similar to N-terminus of methionyl HGH and leucyl oligopeptide of SEQ. ID. NO: 2. The oligopeptides of this invention were synthesized.
(§2) In addition oligopeptide was also used as substrate to perform enzyme reaction by using substrate of known concentration and aminopeptidase in buffer containing 0.1M Tris-Cl, 0.1M NaCl to make 500 μl reaction volume. The enzyme reaction was performed at 37° C. and after 5 and 10 min 250 μl of reaction mixture was adopted and added 70% acetic acid to stop the reaction. The reaction mixture was analyzed by performing HPLC chromatography.
(§3) In reaction condition mentioned above, initial velocity of enzyme reaction was measured with varying the substrate concentration. Lineweaver-Burk plot was used to determine Km value and Maximum reaction velocity of aminopeptidase from Bacillus licheniformis. In addition kcat and kcat/Km was determined by using Km value and maximum reaction velocity described above.

[2] = tested on: leucyl oligopeptide of SEQ. ID. NO: 2; test: Kinetic parameters of aminopeptidase, leucyl oligopeptide substrate; format: biochemical; conditions: 37° C.
Excerpt: as §1, §2, §3

B1: Aeromonas proteolytica aminopeptidase: Aeromonas proteolytica (Vibrio prozeolytica) aminopeptidase (Korean Patent Publication NO. 94-14804), comparison enzyme (protein)
chain: MPPITQQATVTAWLPQVDASQITGTISSLESFTNRFYTTTSGAQASDWIASEWQALSASLPNASVKQVSHSGYNQKSVVMTITGSEAPDEWIVIGGHLDSTIGSHTNEQSVAPGADDDASGIAAVTEVIRVLSENNFQPKRSIAFMAYAAEEVGLRGSQDLANQYKSEGKNVVSALQLDMTNYKGSAQDVVFITDYTDSNFTQYLTQLMDEYLPSLTYGFDTCGYACSDHASWHNAGYPAAMPFESKFNDYNPRIHTTQDTLANSDPTGSHAKKFTQLGLAYAIEMGSATGDTPTPGNQ
Km [1]: 956 µM
kcat [1]: 3.23 s⁻¹
Km [2]: 336 µM
kcat [2]: 70.29 s⁻¹
